Measurements from PMC4333400 (Nucleic Acids Research, 2015).
Read-outs that look alike come from different tables or passages of the source.

Assays:
NMR solution structure = molecular target: the molecule itself; assay: NMR solution structure
EcMazE1-50 [1] = molecular target: T1, EcMazE1-50 (Escherichia coli, UniProt P0AE72 1-50); assay: ITC
T1 chain: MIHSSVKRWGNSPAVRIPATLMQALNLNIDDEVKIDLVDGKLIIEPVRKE

EcMazE1-50 [2] = molecular target: T1, EcMazE1-50; assay: ITC
EcMazE full-length = EcMazE full-length (Escherichia coli, UniProt P0AE72 1-82); assay: ITC
[3] = molecular target: EcMazE full-length;EcMazF (Escherichia coli;Escherichia coli, UniProt P0AE72;P0AE70 1-82;1-111, |); assay: EMSA
EcMazE1-50 [4] = molecular target: T1, EcMazE1-50; assay: NMR

Chain of EcMazE full-length (P0AE72 whole entry): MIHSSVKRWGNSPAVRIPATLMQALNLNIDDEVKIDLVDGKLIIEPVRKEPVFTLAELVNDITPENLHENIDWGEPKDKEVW
Chain of EcMazE full-length;EcMazF (P0AE70 whole entry, one chain of several): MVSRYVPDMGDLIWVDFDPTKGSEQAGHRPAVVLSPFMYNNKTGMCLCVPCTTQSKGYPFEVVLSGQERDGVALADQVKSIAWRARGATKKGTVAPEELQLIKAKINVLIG

With MIHSSVKRWGNSPAVRIPATLMQALNLNIDDEVKIDLVDGKLIIEPVRKE (domain or fragment) [truncated EcMazE^1–50 (N-terminal DNA binding domain of Escherichia coli antitoxin MazE)] the “stoichiometry N” value (NMR solution structure) was 2.

B1: DNA 'cab' (dsDNA)
DNA 1: CTCGTATCTACAATGTAGATTGATATATACTGTATCTACATATGATAGCGT
DNA 2: ACGCTATCATATGTAGATACAGTATATATCAATCTACATTGTAGATACGAG
B1 gave a Kd (EcMazE1-50 [1]) of 600 ± 500 nM.

B2: DNA 'a' (14 bp) (dsDNA)
DNA 1: TTGATATATACTGT
DNA 2: ACAGTATATATCAA
In the case of B2, the Kd (EcMazE1-50 [2]) is reported as 5600 ± 300 nM and the Kd (EcMazE full-length) is reported as 5100 ± 200 nM.

B3: DNA 'a' (EMSA probe) (dsDNA)
DNA 1: TTGATATATACTGT
DNA 2: ACAGTATATATCAA
B3: binds [3].

B4: DNA 'a' (15 bp, altered ends) (dsDNA)
DNA 1: CGTGATATATACTGC
DNA 2: GCAGTATATATCACG
B4: binds (EcMazE1-50 [4]).

B5: DNA 'b' (dsDNA)
DNA 1: ATATACTGTATCTACATAT
DNA 2: ATATGTAGATACAGTATAT
In the case of B5, the Kd (EcMazE1-50 [2]) is reported as 2100 ± 600 nM.

B6: DNA 'c' (dsDNA)
DNA 1: GTATCTACAATGTAGATTG
DNA 2: CAATCTACATTGTAGATAC
B6 showed a Kd (EcMazE1-50 [2]) of 600 ± 200 nM.
